Biological target: BG505 SOSIP.664
Experiment: BLI

- Kd: 34.8 nM
- koff: 0.00085 s⁻¹
B1: PGT122 Fab (Fab, V domains shown)
VH: QVHLQESGPGLVKPSETLSLTCNVSGTLVRDNYWSWIRQPLGKQPEWIGYVHDSGDTNYNPSLKSRVHLSLDKSKNLVSLRLTGVTAADSAIYYCATTKHGRRIYGVVAFKEWFTYFYMDVWGKGTSVTVSS
VL: APTFVSVAPGQTARITCGEESLGSRSVIWYQQRPGQAPSLIIYNNNDRPSGIPDRFSGSPGSTFGTTATLTITSVEAGDEADYYCHIWDSRRPTNWVFGEGTTLIVL

Reference: PMC5955915 (2018)
